Data: US20150037339A1 (Regeneron, published 2015)

T1: Activin AB (human, UniProt P08476 311-426; P09529 293-407)
T1 construct: Heterodimer of one betaA and one betaB subunit; bought (R&D Systems #1006-AB-005 / #1066-AB)
T1 chain 1: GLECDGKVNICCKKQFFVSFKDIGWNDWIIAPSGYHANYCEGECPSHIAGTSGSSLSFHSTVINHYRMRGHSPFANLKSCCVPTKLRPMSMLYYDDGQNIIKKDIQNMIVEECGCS
T1 chain 2: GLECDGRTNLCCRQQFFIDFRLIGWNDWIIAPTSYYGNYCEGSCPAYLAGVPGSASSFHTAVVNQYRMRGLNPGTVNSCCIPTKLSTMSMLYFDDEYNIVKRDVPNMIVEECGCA

T2: Activin AC (human, UniProt P55103 237-352)
T2 sequence 1: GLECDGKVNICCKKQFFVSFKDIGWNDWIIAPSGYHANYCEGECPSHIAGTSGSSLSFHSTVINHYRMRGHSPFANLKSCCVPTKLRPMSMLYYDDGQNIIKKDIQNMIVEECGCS
T2 sequence 2: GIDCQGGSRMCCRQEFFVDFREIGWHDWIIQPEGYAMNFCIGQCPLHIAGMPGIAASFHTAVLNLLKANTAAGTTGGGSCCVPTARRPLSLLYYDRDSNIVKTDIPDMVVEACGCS

T3: Activin A (human, UniProt P08476 311-426)
T3 sequence: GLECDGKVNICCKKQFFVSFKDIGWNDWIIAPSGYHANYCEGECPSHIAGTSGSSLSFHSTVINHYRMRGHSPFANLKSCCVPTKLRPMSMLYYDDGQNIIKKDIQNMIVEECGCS

T4: Activin B (human, UniProt P09529 293-407)
T4 construct: Homodimer of two betaB subunits; bought (R&D Systems #659-AB)
T4 chain: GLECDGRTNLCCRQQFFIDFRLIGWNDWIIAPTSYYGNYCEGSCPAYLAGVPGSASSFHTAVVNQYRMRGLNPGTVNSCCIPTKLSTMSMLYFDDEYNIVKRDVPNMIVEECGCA

T5: hBMP6 (human, UniProt P22004 382-513, limits assumed)
T5 construct: Bought protein
T5 sequence (looked up): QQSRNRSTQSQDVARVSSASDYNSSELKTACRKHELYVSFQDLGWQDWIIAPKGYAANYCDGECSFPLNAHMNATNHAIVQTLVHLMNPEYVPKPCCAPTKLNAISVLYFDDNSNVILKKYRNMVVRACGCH

T6: hBMP4 (human, UniProt P12644 293-408)
T6 construct: Bought protein
T6 sequence (looked up): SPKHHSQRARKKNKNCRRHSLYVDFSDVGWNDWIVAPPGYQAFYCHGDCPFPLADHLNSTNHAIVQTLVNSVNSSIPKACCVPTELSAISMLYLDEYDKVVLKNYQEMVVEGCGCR

T7: hBMP9 (human, UniProt Q9UK05 320-429)
T7 construct: Bought protein
T7 sequence (looked up): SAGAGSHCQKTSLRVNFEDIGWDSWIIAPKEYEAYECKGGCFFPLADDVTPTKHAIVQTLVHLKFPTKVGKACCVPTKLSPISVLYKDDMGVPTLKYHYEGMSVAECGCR

T8: hBMP10 (human, UniProt O95393 317-424)
T8 construct: Bought protein
T8 sequence (looked up): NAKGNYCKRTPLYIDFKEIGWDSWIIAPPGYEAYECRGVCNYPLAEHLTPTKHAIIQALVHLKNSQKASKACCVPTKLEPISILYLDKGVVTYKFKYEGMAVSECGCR

T9: hBMP7 (human, UniProt P18075 293-431)
T9 construct: Bought protein
T9 sequence (looked up): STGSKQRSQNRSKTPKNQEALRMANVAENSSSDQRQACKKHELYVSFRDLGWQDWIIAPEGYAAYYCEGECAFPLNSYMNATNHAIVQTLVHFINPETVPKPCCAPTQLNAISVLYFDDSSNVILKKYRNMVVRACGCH


Key:
Activin AB [1] = target: T1, Activin AB; test: SPR (Biacore), mAb captured on anti-Fc, Activin AB injected, 25 C
Summary of the method: (§1)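 Reported half-lives follow ln2/(60*kd) in minutes, with KD taken as kd/ka. Both rest on fits to binding data from 240 s of association and 600 s of buffer dissociation.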

Activin AB [2] = target: T1, Activin AB; test: SPR (Biacore), mAb captured on anti-Fc, Activin AB injected, 37 C
Summary of the method: as §1

Activin AB [3] = target: T1, Activin AB; test: cell-based or functional assay
Activin AC [4] = target: T2, Activin AC; test: cell-based or functional assay
Activin A [5] = target: T3, Activin A; test: cell-based or functional assay
Activin AC [6] = target: T2, Activin AC; test: SPR (Biacore), mAb captured on anti-Fc, Activin AC injected, 37 C
Summary of the method: as §1

Activin B = target: T4, Activin B; test: SPR (Biacore 4000), captured on anti-human Fc, 200 nM ligand injected, 37 C
Method: (§2) For the binding experiment, a Biacore 4000 instrument was used. […] All Biacore binding studies were performed in HBS-T running buffer (0.01 M HEPES pH 7.4, 0.5 M NaCl, 3 mM EDTA, 0.5 mg/ml bovine serum albumin, 0.05% v/v Surfactant P20). […] All binding measurements were performed at 37° C. […] Over the captured antibody surface was injected the TGF-beta family ligands through concentrations ranging from 3.1 nM to 200 nM.

hBMP2 = target: T10, hBMP2 (human, UniProt P12643 283-396); test: as above
T10 construct: Bought protein; also called BPM2
T10 sequence (P12643 283-396 limits assumed): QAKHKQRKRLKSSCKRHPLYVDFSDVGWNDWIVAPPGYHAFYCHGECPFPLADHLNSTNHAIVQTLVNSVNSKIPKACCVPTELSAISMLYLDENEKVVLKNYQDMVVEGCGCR
Method: as §2

hBMP6 = target: T5, hBMP6; test: as above
Method: as §2

hBMP4 = target: T6, hBMP4; test: as above
Method: as §2

Activin AB [7] = target: T1, Activin AB; test: as above
Method: as §2

hBMP9 = target: T7, hBMP9; test: as above
Method: as §2

hBMP10 = target: T8, hBMP10; test: as above
Method: as §2

GDF8 = target: T11, GDF8 (human, UniProt O14793 267-375); test: as above
T11 construct: Bought (R&D Systems #788-G8); also called hGDF8; growth and differentiation factor-8
Method: as §2

GDF11 = target: T12, GDF11 (human, UniProt O95390 299-407); test: as above
T12 construct: Bought protein; also called hGDF11
T12 sequence (O95390 299-407 limits assumed): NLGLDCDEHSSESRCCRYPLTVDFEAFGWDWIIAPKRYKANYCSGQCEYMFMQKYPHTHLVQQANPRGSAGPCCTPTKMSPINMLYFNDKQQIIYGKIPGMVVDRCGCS
Method: as §2

hBMP7 = target: T9, hBMP7; test: as above
Method: as §2

Activin AC [8] = target: T2, Activin AC; test: as above
Method: as §2

Activin A [9] = target: T3, Activin A; test: as above
Method: as §2

Activin AC [10] = target: T2, Activin AC; test: SPR (Biacore), mAb captured on anti-Fc, Activin AC injected, 25 C
Summary of the method: as §1

Binder	50 nM Ag Bound (RU) (Activin AB [1])	Kd (Activin AB [1]) [nM]	koff (Activin AB [1]) [s⁻¹]	kon (Activin AB [1]) [M⁻¹ s⁻¹]	t1/2 (Activin AB [1]) [min]	50 nM Ag Bound (RU) (Activin AB [2])	Kd (Activin AB [2]) [nM]	koff (Activin AB [2]) [s⁻¹]	kon (Activin AB [2]) [M⁻¹ s⁻¹]	t1/2 (Activin AB [2]) [min]	IC50 [M], inhibition of 30 pM Activin AB in A204/CAGAx12-Luc Smad2/3-luciferase bioassay (Activin AB [3]) [M]	IC50 [M], inhibition of 4 nM Activin AC in A204/CAGAx12-Luc Smad2/3-luciferase bioassay (Activin AC [4]) [M]	IC50 [M], inhibition of 100 pM Activin A in A204/CAGAx12-Luc Smad2/3-luciferase bioassay (Activin A [5]) [M]	50 nM Ag Bound (RU) (Activin AC [6])	Kd (Activin AC [6]) [nM]	koff (Activin AC [6]) [s⁻¹]	kon (Activin AC [6]) [M⁻¹ s⁻¹]	t1/2 (Activin AC [6]) [min]	binding response (resonance units) for 200 nM ligand (Activin B) [RU]	binding response (resonance units) for 200 nM ligand (hBMP2) [RU]	other results
H4H10442P2 (antibody, human IgG4, V domains shown) VH: QVQLQESGPGLVKPSETLSITCTVSGGSFSSHFWTWIRQPPGKGLEWIGYLHYSGGTSYNPSLKSRVIISVDTSKNQFSLKLNSVTAADTAVYYCARARSGITFGGLIVPGSFDIWGQGTMVTVSS VL: not shown	34.6	0.32	0.00177	5.53e+06	6.5	45.9	0.464	0.00425	9.17e+06	2.7	2.2e-09	6.5e-09	5.6e-11	21.4	4.1	0.00599	1.46e+06	1.9	-1.8	-2.3	binding response (resonance units) for 200 nM ligand (hBMP6): 1.1 RU; binding response (resonance units) for 200 nM ligand (hBMP4): -0.7 RU; binding response (resonance units) for 200 nM ligand (Activin AB [7]): 65.2 RU; binding response (resonance units) for 200 nM ligand (hBMP9): 0 RU; binding response (resonance units) for 200 nM ligand (hBMP10): -0.7 RU; binding response (resonance units) for 200 nM ligand (GDF8): 0.5 RU; binding response (resonance units) for 200 nM ligand (GDF11): 1 RU; binding response (resonance units) for 200 nM ligand (hBMP7): 1.5 RU; binding response (resonance units) for 200 nM ligand (Activin AC [8]): 14.2 RU; binding response (resonance units) for 200 nM ligand (Activin A [9]): 63.9 RU; 50 nM Ag Bound (RU) (Activin AC [10]): 18.6 RU; Kd (Activin AC [10]): 1.57 nM; koff (Activin AC [10]): 0.00205 s⁻¹; kon (Activin AC [10]): 1.31e+06 M⁻¹ s⁻¹; t1/2 (Activin AC [10]): 5.6 min
H4H10446P2 (antibody, human IgG4, V domains shown) VH: QVQLQESGPGLVKPSETLSLTCTVSGGSFSSHFWSWIRQPPGKGLEWIGYILYTGGTSFNPSLKSRVSMSVGTSKNQFSLKLSSVTAADTAVYYCARARSGITFTGIIVPGSFDIWGQGTMVTVSS VL: not shown	31.9	0.815	0.00406	4.99e+06	2.8	41.5	1.34	0.00817	6.08e+06	1.4	8.2e-09	5.6e-09	4.7e-11	14.4	22.5	0.0216	959000	0.5	2.6	3.3	binding response (resonance units) for 200 nM ligand (hBMP6): 5.3 RU; binding response (resonance units) for 200 nM ligand (hBMP4): 0.8 RU; binding response (resonance units) for 200 nM ligand (Activin AB [7]): 66.7 RU; binding response (resonance units) for 200 nM ligand (hBMP9): -0.3 RU; binding response (resonance units) for 200 nM ligand (hBMP10): 0.5 RU; binding response (resonance units) for 200 nM ligand (GDF8): 0.7 RU; binding response (resonance units) for 200 nM ligand (GDF11): 1.8 RU; binding response (resonance units) for 200 nM ligand (hBMP7): 5.7 RU; binding response (resonance units) for 200 nM ligand (Activin AC [8]): 15.2 RU; binding response (resonance units) for 200 nM ligand (Activin A [9]): 53.2 RU; 50 nM Ag Bound (RU) (Activin AC [10]): 12.6 RU; Kd (Activin AC [10]): 11.8 nM; koff (Activin AC [10]): 0.0122 s⁻¹; kon (Activin AC [10]): 1.04e+06 M⁻¹ s⁻¹; t1/2 (Activin AC [10]): 0.9 min
H4H10430P (antibody, human IgG4, V domains shown) VH: EVQLVESGGGLVQPGRSLRLSCKASGFAFDDFAMHWVRQAPGKGLEWVSGIVWNSGDIGYADSVKGRFTISRDNAKNSLYLQLNSLRTEDTALYFCVKDMVRGLMGFNYYGMDVWGQGTTVTVSS VL: EIVLTQSPATLSLSPGERATLSCRASQTISTYLVWYRQRPGQAPSLLIYDASNRATDIPARFSGSGSGTDFTLTISSLEPEDFAVYYCQQRSNWPITFGQGTRLEIK	33	0.0185	0.000217	1.17e+07	53.3	41	0.0535	0.000541	1.01e+07	21.3	1e-10	9.3e-10	6.1e-11	25.3	16.7	0.02	1.2e+06	0.6	0.4	-1.7	binding response (resonance units) for 200 nM ligand (hBMP6): 5.7 RU; binding response (resonance units) for 200 nM ligand (hBMP4): -0.6 RU; binding response (resonance units) for 200 nM ligand (Activin AB [7]): 95 RU; binding response (resonance units) for 200 nM ligand (hBMP9): -0.6 RU; binding response (resonance units) for 200 nM ligand (hBMP10): 0.3 RU; binding response (resonance units) for 200 nM ligand (GDF8): -0.1 RU; binding response (resonance units) for 200 nM ligand (GDF11): 3 RU; binding response (resonance units) for 200 nM ligand (hBMP7): 6.4 RU; binding response (resonance units) for 200 nM ligand (Activin AC [8]): 34.8 RU; binding response (resonance units) for 200 nM ligand (Activin A [9]): 69.1 RU; 50 nM Ag Bound (RU) (Activin AC [10]): 23.6 RU; Kd (Activin AC [10]): 8.86 nM; koff (Activin AC [10]): 0.0109 s⁻¹; kon (Activin AC [10]): 1.23e+06 M⁻¹ s⁻¹; t1/2 (Activin AC [10]): 1.1 min
